Reference: patent US20100092522A1 (published 2010)

B1: WT1 C1 (analogue) (peptide)
peptide: YLLPAVPSL
B2: A3 WT1 B (native) (peptide)
peptide: QMNLGATLK
B3: A3 WT1 B3 (analogue) (peptide)
peptide: QMYLGVTLK
B4: A3 WT1 B2 (analogue) (peptide)
peptide: QMNLGVTLK
B5: A3 WT1 B1 (analogue) (peptide)
peptide: QMYLGATLK
B6: A3 WT1 C (native) (peptide)
peptide: FMCAYPGCNK
B7: A3 WT1 C3 (analogue) (peptide)
peptide: FMYAYPFCNK
B8: A3 WT1 C2 (analogue) (peptide)
peptide: FMCAYPFCNK
B9: A3 WT1 C1 (analogue) (peptide)
peptide: FMYAYPGCNK
B10: A3 WT1 A (native) (peptide)
peptide: NMHQRNMTK
B11: A3 WT1 A2 (analogue) (peptide)
peptide: NMHQRVMTK
B12: A3 WT1 A1 (analogue) (peptide)
peptide: NMYQRNMTK
B13: A3 WT1 A3 (analogue) (peptide)
peptide: NMYQRVMTK
B14: A3 WT1 D (native) (peptide)
peptide: KLSHLQMHSR
B15: A3 WT1 D3 (analogue) (peptide)
peptide: KLYHLQMHSK
B16: A3 WT1 D1 (analogue) (peptide)
peptide: KLYHLQMHSR
B17: A3 WT1 D2 (analogue) (peptide)
peptide: KLSHLQMHSK
B18: WT1 B1 (analogue) (peptide)
peptide: YLGEQQYSV
B19: WT1 D1 (analogue) (peptide)
peptide: YLGATLKGV
B20: WT1 A1 (analogue) (peptide)
peptide: YMFPNAPYL
B21: WT1 B (native) (peptide)
peptide: SLGEQQYSV
B22: WT1 D (native) (peptide)
peptide: NLGATLKGV
B23: WT1 C (native) (peptide)
peptide: ALLPAVPSL
B24: WT1 A (native) (peptide)
peptide: RMFPNAPYL
notes: also called WT1A (126-134)

Each binder was assayed against T1, HLA-A0201 molecule on T2 cells (TAP-, HLA-A0201+) (human) (assay: T2 stabilization assay of Example 1, as told in the description).
T1 construct: MHC class I molecule without a defined peptide; also called HLA-A2.1
Description: (§1) T2 cells (TAP⁻, HLA-A0201⁺) were incubated overnight at 27° C. at a concentration of 1×10⁶ cells/ml in FCS-free RPMI medium supplemented with 5 μg/ml human β₂m (Sigma, St Louis, Mo.) in the absence (negative control) or presence of either a positive reference tyrosinase peptide or test peptides at various final concentrations (50, 10, 1, and 0.1 micrograms (μg)/ml). Following a 4-hour incubation with 5 μg/ml brefeldin A (Sigma), T2 cells were labeled for 30 minutes at 4° C. with a saturating concentration of anti-HLA-A2.1 (BB7.2) mAb, then washed twice. Cells were then incubated for 30 minutes, 4° C. with a saturating concentration of FITC-conjugated goat IgG F(ab′)2 anti-mouse Ig (Caltag, San Francisco, Calif.), washed twice, fixed in PBS/1% paraformaldehyde and analyzed using a FACS Calibur® cytofluorometer (Becton Dickinson, Immunocytometry Systems, San Jose, Calif.).
(§2) Following initial evaluation of peptide binding at time 0, cells were washed in RPMI complete medium to remove free peptides and incubated in the continuous presence of 0.5 μg/ml brefeldin-A for 2, 4, 6 or 8 hours.

Binding result, binds:
B1

What follows are binders tested against T2, HLA-A0301 molecule on Raji HLA-A0301 cells (human) (assay: thermostabilization assay on Raji HLA-A0301 cells, fluorescence index).
T2 construct: It says only 'thermostabilization assays using; Raji HLA-A0301 cells'

Binding result, binds:
B2
B3
B4
B5
B6
B7
B8
B9
B10
B11
B12
B13
B14
B15
B16
B17

These binders were tested against T1, HLA-A0201 molecule on T2 cells (TAP-, …) (assay: T2 thermostabilization assay, flow cytometry of surface HLA-A2 (BB7.2), fluorescence index).
Description: as §1, §2

Binding result, binds:
B18
B19
B20

Each binder was assayed against T1, HLA-A0201 molecule on T2 cells (TAP-, …) (assay: T2 thermostabilization assay, flow cytometry of surface HLA-A2 (BB7.2), fluorescence index; native peptide as reference).
Description: as §1, §2

Binding result, binds:
B21
B22
B23
B24
